Patent US20250163182A1 (Janssen / Centocor, published 2025)

Experiments:
[1] = target: T1, human CD3 on T cells (human, UniProt P07766 23-207); assay: flow cytometry on human T cells, average of 6 donors
T1 construct: on T cells it stands in the TCR-CD3 complex; also called human T cells; T cells isolated from healthy human donors

[2] = target: T2, human ENPP3 on cells (human, UniProt O14638 1-875); assay: cell-based or functional assay
T2 sequence (looked up): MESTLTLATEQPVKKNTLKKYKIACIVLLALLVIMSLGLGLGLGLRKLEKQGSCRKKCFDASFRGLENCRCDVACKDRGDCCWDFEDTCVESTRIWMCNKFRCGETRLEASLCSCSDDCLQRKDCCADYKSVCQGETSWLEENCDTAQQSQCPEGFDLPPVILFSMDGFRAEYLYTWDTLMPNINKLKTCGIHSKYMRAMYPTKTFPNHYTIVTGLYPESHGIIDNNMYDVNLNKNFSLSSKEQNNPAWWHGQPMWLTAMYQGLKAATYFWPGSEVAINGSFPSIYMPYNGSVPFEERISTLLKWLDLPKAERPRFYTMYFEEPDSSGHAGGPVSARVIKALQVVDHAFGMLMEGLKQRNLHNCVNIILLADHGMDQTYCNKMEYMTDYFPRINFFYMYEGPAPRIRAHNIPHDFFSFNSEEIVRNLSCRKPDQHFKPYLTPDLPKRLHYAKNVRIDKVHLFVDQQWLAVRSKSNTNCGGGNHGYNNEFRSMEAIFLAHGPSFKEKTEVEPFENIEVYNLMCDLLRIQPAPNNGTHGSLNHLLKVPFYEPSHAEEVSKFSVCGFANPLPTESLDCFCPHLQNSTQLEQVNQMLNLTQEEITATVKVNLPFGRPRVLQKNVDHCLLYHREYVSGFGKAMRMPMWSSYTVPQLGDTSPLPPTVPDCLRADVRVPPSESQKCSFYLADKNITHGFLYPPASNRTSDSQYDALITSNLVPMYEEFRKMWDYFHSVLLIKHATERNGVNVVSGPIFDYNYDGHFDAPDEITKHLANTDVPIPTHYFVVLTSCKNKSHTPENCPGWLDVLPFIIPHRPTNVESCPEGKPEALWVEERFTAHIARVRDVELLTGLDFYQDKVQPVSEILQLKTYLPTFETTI

[3] = target: T1, human CD3 on T cells; assay: flow cytometry on human T cells, donor 110048457
[4] = target: T2, human ENPP3 on cells; assay: cell-based or functional assay; remark: listed apart in the source
[5] = target: ENPP2 on CHOK1 cells (UniProt Q13822 36-863); assay: flow cytometry on CHO cells overexpressing ENPP2
[6] = target: T3, human ENPP3 (human, UniProt O14638 46-875, limits assumed); assay: affinity; method and construct not stated
T3 construct: neither the construct nor the method is stated; also called ectonucleotide pyrophosphatase/phosphodiesterase family member 3
T3 sequence (looked up): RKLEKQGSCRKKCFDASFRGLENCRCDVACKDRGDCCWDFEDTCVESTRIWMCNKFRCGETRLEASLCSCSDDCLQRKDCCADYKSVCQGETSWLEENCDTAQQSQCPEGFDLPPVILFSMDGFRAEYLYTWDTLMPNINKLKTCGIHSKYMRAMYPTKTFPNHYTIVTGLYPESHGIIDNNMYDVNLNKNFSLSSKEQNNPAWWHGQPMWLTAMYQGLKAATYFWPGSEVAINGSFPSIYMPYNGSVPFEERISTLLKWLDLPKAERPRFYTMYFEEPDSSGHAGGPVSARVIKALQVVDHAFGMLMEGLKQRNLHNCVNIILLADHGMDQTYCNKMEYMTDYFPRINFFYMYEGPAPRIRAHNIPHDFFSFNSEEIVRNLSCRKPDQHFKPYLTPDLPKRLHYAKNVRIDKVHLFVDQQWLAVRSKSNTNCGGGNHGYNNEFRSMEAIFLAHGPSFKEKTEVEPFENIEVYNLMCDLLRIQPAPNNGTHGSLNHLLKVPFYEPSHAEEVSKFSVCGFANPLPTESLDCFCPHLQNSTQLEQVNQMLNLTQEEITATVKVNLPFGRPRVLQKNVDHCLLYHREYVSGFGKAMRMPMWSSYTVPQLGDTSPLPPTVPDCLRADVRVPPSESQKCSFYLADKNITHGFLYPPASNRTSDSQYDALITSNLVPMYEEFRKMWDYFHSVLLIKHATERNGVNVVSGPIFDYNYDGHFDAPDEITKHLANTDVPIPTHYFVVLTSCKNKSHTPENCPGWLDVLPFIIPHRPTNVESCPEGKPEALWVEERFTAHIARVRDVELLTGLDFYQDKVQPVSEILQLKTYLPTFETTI

[7] = target: T4, human CD3 (human, UniProt P07766 23-126, limits assumed); assay: affinity; method and construct not stated
T4 construct: also called CD3 epsilon
T4 sequence (P07766 23-126 limits assumed): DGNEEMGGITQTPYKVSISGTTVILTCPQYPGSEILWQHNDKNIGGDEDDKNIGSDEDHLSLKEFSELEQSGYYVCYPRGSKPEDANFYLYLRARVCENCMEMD

T1 sequence (P07766 23-207 limits assumed): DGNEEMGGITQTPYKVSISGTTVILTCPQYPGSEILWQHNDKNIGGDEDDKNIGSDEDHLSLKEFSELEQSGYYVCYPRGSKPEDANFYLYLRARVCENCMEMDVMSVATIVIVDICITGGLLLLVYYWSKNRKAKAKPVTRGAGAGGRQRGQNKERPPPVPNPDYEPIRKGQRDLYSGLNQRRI

B1: NPP3B815 (bispecific antibody, human IgG1, kappa, L234A L235A)
heavy 1: EIVLTQSPATLSASPGERVTLSCSASSSVSYMNWYQQKPGCAPRRWIYDSSKLASGVPARFSGSGSGRDYTLTISSLEPEDFAVYYCQQWSRNPPTFGGGTKVEIKGGGSGGSGGCPPCGGSGGQVQLVQSGAEVKKPGSSVKVSCKASGYTFTRSTMHWVKQAPGQGLEWIGYINPSSAYTNYNQKFQGRVTLTADKSTSTAYMELSSLRSEDTAVYYCASPQVHYDYAGFPYWGCGTLVTVSSEPKSSDKTHTCPPCPAPEAAGGPSVFLFPPKPKDTLMISRTPEVTCVVVSVSHEDPEVKFNWYVDGVEVHNAKTKPREEQYNSTYRVVSVLTVLHQDWLNGKEYKCKVSNKALPAPIEKTISKAKGQPREPQVYTLPPSREEMTKNQVSLWCLVKGFYPSDIAVEWESNGQPENNYKTTPPVLDSDGSFFLYSKLTVDKSRWQQGNVFSCSVMHEALHNHYTQKSLSLSPGK
heavy 2: EVQLVESGGGRVKPGGSLRLSCAASGFTFSDYSMNWVRQAPGKGLEWVSSISSISSYVKYADSVKGRFTMSRDNAKNSLFLQMNSLRDEDMAVYYCARGHYFDYWGQGTLVTVSSASTKGPSVFPLAPSSKSTSGGTAALGCLVKDYFPEPVTVSWNSGALTSGVHTFPAVLQSSGLYSLSSVVTVPSSSLGTQTYICNVNHKPSNTKVDKKVEPKSCDKTHTCPPCPAPEAAGGPSVFLFPPKPKDTLMISRTPEVTCVVVSVSHEDPEVKFNWYVDGVEVHNAKTKPREEQYNSTYRVVSVLTVLHQDWLNGKEYKCKVSNKALPAPIEKTISKAKGQPREPQVYTLPPSREEMTKNQVSLSCAVKGFYPSDIAVEWESNGQPENNYKTTPPVLDSDGSFFLVSKLTVDKSRWQQGNVFSCSVMHEALHNRFTQKSLSLSPGK
light: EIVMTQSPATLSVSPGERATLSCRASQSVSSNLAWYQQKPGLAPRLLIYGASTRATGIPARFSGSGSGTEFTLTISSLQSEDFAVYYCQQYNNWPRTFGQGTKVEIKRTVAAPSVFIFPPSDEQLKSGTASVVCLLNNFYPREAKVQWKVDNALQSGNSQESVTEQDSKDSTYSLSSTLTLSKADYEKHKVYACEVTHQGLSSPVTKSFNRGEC
notes: HC2 carries the NPP3B56 Fab and the hole T366S, L368A, Y407V; Fc with L234A, L235A, D265S; The CPPC linker cysteines form disulfides with engineered Cys at L42 and H105 (Chothia); also called NPP3B56×CD3B2030-N106A; ENPP3×CD3 (NPP3B815)
EC50 [1]: 177 nM
T-cell activation (CD25) EC50; A704; T-cell donor 110040278; E:T 3:1 [2]: 0.008 nM
T-cell activation (CD25) EC50; A704; T-cell donor 110042496; E:T 3:1 [2]: 0.017 nM
T-cell activation (CD25) EC50; A704; T-cell donor 110042593; E:T 3:1 [2]: 0.013 nM
T-cell activation (CD25) EC50; A704; T-cell donor 110044049; E:T 3:1 [2]: 0.008 nM
T-cell activation (CD25) EC50; A704; T-cell donor 110048457; E:T 3:1 [2]: 0.01 nM
T-cell activation (CD25) EC50; A704; T-cell donor 888668965; E:T 3:1 [2]: 0.008 nM
T-cell activation (CD25) EC50; VMRCRCW; T-cell donor 110040278; E:T 3:1 [2]: 0.007 nM
T-cell activation (CD25) EC50; VMRCRCW; T-cell donor 110042496; E:T 3:1 [2]: 0.015 nM
T-cell activation (CD25) EC50; VMRCRCW; T-cell donor 110042593; E:T 3:1 [2]: 0.017 nM
T-cell activation (CD25) EC50; VMRCRCW; T-cell donor 110044049; E:T 3:1 [2]: 0.009 nM
T-cell activation (CD25) EC50; VMRCRCW; T-cell donor 110048457; E:T 3:1 [2]: 0.009 nM
T-cell activation (CD25) EC50; VMRCRCW; T-cell donor 888668965; E:T 3:1 [2]: 0.016 nM
EC50 [3]: 132 nM
killing EC50 @ 72 hrs; A704; T-cell donor 110040278; E:T 1:1 [4]: 0.075 nM
killing EC50 @ 72 hrs; A704; T-cell donor 110040278; E:T 3:1 [4]: 0.0484 nM
killing EC50 @ 72 hrs; A704; T-cell donor 110042496; E:T 1:1 [4]: 0.132 nM
killing EC50 @ 72 hrs; A704; T-cell donor 110042496; E:T 3:1 [4]: 0.0696 nM
killing EC50 @ 72 hrs; A704; T-cell donor 110042593; E:T 1:1 [4]: 0.114 nM
killing EC50 @ 72 hrs; A704; T-cell donor 110042593; E:T 3:1 [4]: 0.0336 nM
killing EC50 @ 72 hrs; A704; T-cell donor 110044049; E:T 3:1 [4]: 0.0524 nM
killing EC50 @ 72 hrs; A704; T-cell donor 888668965; E:T 3:1 [4]: 0.0454 nM
killing EC50 @ 72 hrs; VMRCRCW; T-cell donor 110040278; E:T 1:1 [4]: 0.243 nM
killing EC50 @ 72 hrs; VMRCRCW; T-cell donor 110040278; E:T 1:3 [4]: 0.456 nM
killing EC50 @ 72 hrs; VMRCRCW; T-cell donor 110040278; E:T 3:1 [4]: 0.0923 nM
killing EC50 @ 72 hrs; VMRCRCW; T-cell donor 110042496; E:T 1:1 [4]: 0.465 nM
killing EC50 @ 72 hrs; VMRCRCW; T-cell donor 110042496; E:T 3:1 [4]: 0.128 nM
killing EC50 @ 72 hrs; VMRCRCW; T-cell donor 110042593; E:T 1:1 [4]: 0.225 nM
killing EC50 @ 72 hrs; VMRCRCW; T-cell donor 110042593; E:T 3:1 [4]: 0.0795 nM
killing EC50 @ 72 hrs; VMRCRCW; T-cell donor 110044049; E:T 1:1 [4]: 0.151 nM
killing EC50 @ 72 hrs; VMRCRCW; T-cell donor 110044049; E:T 1:3 [4]: 0.226 nM
killing EC50 @ 72 hrs; VMRCRCW; T-cell donor 110044049; E:T 3:1 [4]: 0.115 nM
killing EC50 @ 72 hrs; VMRCRCW; T-cell donor 110048457; E:T 1:1 [4]: 0.177 nM
killing EC50 @ 72 hrs; VMRCRCW; T-cell donor 110048457; E:T 1:3 [4]: 0.276 nM
killing EC50 @ 72 hrs; VMRCRCW; T-cell donor 110048457; E:T 3:1 [4]: 0.372 nM
killing EC50 @ 72 hrs; VMRCRCW; T-cell donor 888668965; E:T 1:1 [4]: 0.273 nM
killing EC50 @ 72 hrs; VMRCRCW; T-cell donor 888668965; E:T 1:3 [4]: 0.469 nM
killing EC50 @ 72 hrs; VMRCRCW; T-cell donor 888668965; E:T 3:1 [4]: 0.156 nM
killing EC50 @ 120 hrs; A704; T-cell donor 110040278; E:T 1:1 [4]: 0.041 nM
killing EC50 @ 120 hrs; A704; T-cell donor 110040278; E:T 1:3 [4]: 0.149 nM
killing EC50 @ 120 hrs; A704; T-cell donor 110042496; E:T 1:1 [4]: 0.073 nM
killing EC50 @ 120 hrs; A704; T-cell donor 110042496; E:T 1:3 [4]: 0.191 nM
killing EC50 @ 120 hrs; A704; T-cell donor 110042593; E:T 1:1 [4]: 0.048 nM
killing EC50 @ 120 hrs; A704; T-cell donor 110042593; E:T 1:3 [4]: 0.106 nM
killing EC50 @ 120 hrs; A704; T-cell donor 110044049; E:T 1:1 [4]: 0.125 nM
killing EC50 @ 120 hrs; A704; T-cell donor 888668965; E:T 1:3 [4]: 0.163 nM
killing EC50 @ 120 hrs; VMRCRCW; T-cell donor 110040278; E:T 1:1 [4]: 0.264 nM
killing EC50 @ 120 hrs; VMRCRCW; T-cell donor 110040278; E:T 1:3 [4]: 0.332 nM
killing EC50 @ 120 hrs; VMRCRCW; T-cell donor 110042496; E:T 1:1 [4]: 0.454 nM
killing EC50 @ 120 hrs; VMRCRCW; T-cell donor 110042496; E:T 1:3 [4]: 0.5 nM
killing EC50 @ 120 hrs; VMRCRCW; T-cell donor 110042593; E:T 1:1 [4]: 0.218 nM
killing EC50 @ 120 hrs; VMRCRCW; T-cell donor 110042593; E:T 1:3 [4]: 0.485 nM
killing EC50 @ 120 hrs; VMRCRCW; T-cell donor 110044049; E:T 1:1 [4]: 0.216 nM
killing EC50 @ 120 hrs; VMRCRCW; T-cell donor 110044049; E:T 1:3 [4]: 0.337 nM
killing EC50 @ 120 hrs; VMRCRCW; T-cell donor 110048457; E:T 1:1 [4]: 0.21 nM
killing EC50 @ 120 hrs; VMRCRCW; T-cell donor 110048457; E:T 1:3 [4]: 0.267 nM
killing EC50 @ 120 hrs; VMRCRCW; T-cell donor 888668965; E:T 1:1 [4]: 0.345 nM
killing EC50 @ 120 hrs; VMRCRCW; T-cell donor 888668965; E:T 1:3 [4]: 0.379 nM
binding result [5]: no binding (tested: 100 nM)
Kd [6]: 0.92 nM
Kd [7]: 110 nM
